Paper PMC4754655 (2016)

B1: GEBT403 mature Fab (Fab, V domains shown)
VH: EVQLVQSGAEVKKPGSSVKVSCKASGYTFTDYYMHWVRQAPGQGLEWMGEINPKTGGTNYAQKFQGRVTMTRDTSTSTAYMELSSLRSEDTAIYSCARGGQRLIPLRRFYFYYWGQGVLVTVSS
VL: QSVLTQPPSVSGAPGQKVTISCTGSSSNIGGYDVHWYQQLPGMAPKLLIYDNNERPSGISDRFSGSKSGTSASLAITGLQTEDEADYYCQSYDSSMNAWVFGGGTRLTVL
B2: GEBT412, mature IgG (antibody, V domains shown)
VH: QVQLVESGGGLVQPGGSLRLACAASGFIFSNHGMHWVRQAPGKGLEWVAVIWYDGSEKYYADSVKDRFTISRDNSKNMLYLQMNNLKLVDTAVYYCARRGCTGSGCYLYYYGLDSWGQGVVVTVSS
VL: DIQMTQSPSSLSASVGDTVTITCRASQGISSHLNWFQQKPGKAPKLLIYAATTLQSGVPSRFSGSGSGTDFTLTISSLQPEDFATYYCLQHNFYPYSFGQGTKVEIK
B3: GEBT391, inferred germline (igL) reverted IgG (antibody, V domains shown)
VH: EVQLVESGGGLVQPGGSLRLSCAASGFTFSSYGMHWVRQAPGKGLEWVAVIWYDGSKKYYADSVKDRFTISRDNSKNMLYLQMNNLKLEDTAVYYCARRGCTGSGCYLYYYALDSWGQGVVVTVSS
VL: DIQMTQSPSSLSASVGDTVTITCRASQGISSYLNWFQQKPGKAPKLLIYAASSLESGVPSRFSGSGSGTEFTLTISSLQPEDFATYYCLQHNFYPYSFGQGTKVEIK
B4: GEBT403, inferred germline (igL) reverted IgG (antibody, V domains shown)
VH: QVQLVQSGAEVKKPGSSVKVSCKASGYTFTDYYMHWVRQAPGQGLEWMGEINPKTGGTNYAQKFQGRVTMTRDTSTSTAYMELSSLRSEDTAVYYCARGGQRLIPLRRFYFYYWGQGVLVTVSS
VL: QSVLTQPPSVSGAPGQKVTISCTGSSSNIGGYDVHWYQQLPGMAPKLLIYDNNERPSGISDRFSGSKSATSASLAITGLQTEDEADYYCQSYDSSMNAWVFGGGTRLTVL
B5: GEBT403, mature IgG (antibody, V domains shown)
VH: EVQLVQSGAEVKKPGSSVKVSCKASGYTFTDYYMHWVRQAPGQGLEWMGEINPKTGGTNYAQKFQGRVTMTRDTSTSTAYMELSSLRSEDTAIYSCARGGQRLIPLRRFYFYYWGQGVLVTVSS
VL: QSVLTQPPSVSGAPGQKVTISCTGSSSNIGGYDVHWYQQLPGMAPKLLIYDNNERPSGISDRFSGSKSGTSASLAITGLQTEDEADYYCQSYDSSMNAWVFGGGTRLTVL
B6: GEBT414, mature IgG (antibody, V domains shown)
VH: EVQLVQSGAEVKRPGESLRISCKTSGYSFTGSWISWVRQMPGKGLDWMGNIYPGDSDTRYNPSFQGHVTISADKSISTTYLQWSSLKASDTATYYCAKGGGITIFGLLHYPLDSWGQGVVVTVSS
VL: DIQMTQSPSSLSASVGDTVTITCRASQGINNWLAWYQQKPGKAPKLLIYKASSLQSGVPSRFSGSGSGTDFTLTISSLQSEDFATYYCQQYNSGPLTFGGGTKVEIK
B7: GEBT404, mature IgG (antibody, V domains shown)
VH: EVQLVESGGGLAKPGGSLRLSCAASGFTFSNYWMYWVRQAPGKGLEWISAINSAGSRTYYPDSVKGRFTISRENAKNTLYLQMDSLRAEDTAVYYCAKGRIAIFGLVITYFDYWGQGVLVTVSS
VL: DIQMTQSPSSLSASVGDRVTITCRASQGITNDLAWYQQKPGETPKLLIYDASSLQSGIPSRFSGSGSGTDFTLTISSLQPEDFATYYCQHYYSTPPTFGGGTKVEIK
B8: GEBT412, inferred germline (igL) reverted IgG (antibody, V domains shown)
VH: QVQLVESGGGLVQPGGSLRLSCAASGFTFSSYGMHWVRQAPGKGLEWVAVIWYDGSKKYYADSVKDRFTISRDNSKNMLYLQMNNLKLEDTAVYYCARRGCTGSGCYLYYYGLDSWGQGVVVTVSS
VL: DIQMTQSPSSLSASVGDTVTITCRASQGISSYLNWFQQKPGKAPKLLIYAASSLESGVPSRFSGSGSGTEFTLTISSLQPEDFATYYCLQHNFYPYSFGQGTKVEIK
B9: GEBT414, inferred germline (igL) reverted IgG (antibody, V domains shown)
VH: EVQLVQSGAEVKRPGESLRISCKTSGYSFTGSWISWVRQMPGKGLEWMGSIYPGDSDTRYNPSFQGHVTISADKSISTTYLQWSSLKASDTATYYCAKGGGITIFGLLHYPLDSWGQGVVVTVSS
VL: DIQMTQSPASLSASVGDRVTITCQASQGISSWLAWYQQKPGKAPKLLLYKAPGLQSGVPSMFSGSGSGTEFTLTISSLQPEDFATYYCQQYNSGPLTFGGGTKVEIK
B10: GEBT404, inferred germline (igL) reverted IgG (antibody, V domains shown)
VH: EVQLVESGGGLAKPGGSLRLSCAASGFTFSNYWMHWVRQAPGKGLEWISAINSAGSSTYYADSVKGRFTISRENAKNTLYLQMDGLRAEDTAVYYCAKGRIAIFGLVITYFDYWGQGVLVTVSS
VL: DIQMTQSPSSLSASVGDRVTITCQASQGITNDLAWYQQKPGETPKLLIYEASSLQSGIPSRFSGSGSGTDFTLTISSLQSEDFATYYCQHYYSTPPTFGGGTKVEIK
B11: GEBT391, mature IgG (antibody, V domains shown)
VH: QVQLVESGGGLVQPGGSLRLSCAASGFTFSSYGMHWVRQAPGKGLEWVAVIWFDGSEKYYVDSVKDRFTISRDNSKNMLYLQMNNLKLDDTAVYYCARRGCTGSGCYLYYYALDSWGQGVVVTVSS
VL: DIQMTQSPSSLSASVGDTVTITCRASQGISSYLNWFQQKPGKAPKLLIYAATTLQSGVPSRFSGSGSGTDFTLTISSLQPEDFATYYCLQHNFYPYSFGQGTKVEIK
B12: GEBT403 igL-reverted Fab (Fab, V domains shown)
VH: QVQLVQSGAEVKKPGSSVKVSCKASGYTFTDYYMHWVRQAPGQGLEWMGEINPKTGGTNYAQKFQGRVTMTRDTSTSTAYMELSSLRSEDTAVYYCARGGQRLIPLRRFYFYYWGQGVLVTVSS
VL: QSVLTQPPSVSGAPGQKVTISCTGSSSNIGGYDVHWYQQLPGMAPKLLIYDNNERPSGISDRFSGSKSATSASLAITGLQTEDEADYYCQSYDSSMNAWVFGGGTRLTVL

Biological target: T1, YU2 gp140-foldon trimer (HIV-1 isolate YU2 (clade B) | )
Assay: SPR

Question: How did the Kd turn out when B1 was run?
Answer: 7 nM

Biological target: YU2 gp120, soluble monomer (HIV-1 isolate YU2 (clade B), UniProt P35961 32-498)
Assay: BLI

Question: B2 was tested. Which Kd did it give?
Answer: 11 nM

Question: For B3, which Kd is on record?
Answer: 118 nM

Question: With B4 as the binder, how does the Kd read?
Answer: 11 nM

Question: Which Kd does the source give for B5 here?
Answer: 13 nM

Question: Which Kd does the source give for B6 here?
Answer: 24 nM

Question: With B7 as the binder, how does the Kd read?
Answer: 43 nM

Question: How did the Kd turn out when B8 was run?
Answer: 104 nM

Question: How did the Kd turn out when B9 was run?
Answer: 63 nM

Question: B10 was tested. Which Kd did it give?
Answer: 56 nM

Question: How did the Kd turn out when B11 was run?
Answer: 6 nM

Biological target: T1, YU2 gp140-foldon trimer
Assay: BLI

Question: How did the Kd turn out when B1 was run?
Answer: 5 nM

Question: With B12 as the binder, how does the Kd read?
Answer: 2 nM
